The results in this text go back to publication PMC9253516 (2022).

This assay concerns the target Survivin full length (UniProt O15392 1-142). Description: ITC.

Chain of Survivin full length (O15392 whole entry): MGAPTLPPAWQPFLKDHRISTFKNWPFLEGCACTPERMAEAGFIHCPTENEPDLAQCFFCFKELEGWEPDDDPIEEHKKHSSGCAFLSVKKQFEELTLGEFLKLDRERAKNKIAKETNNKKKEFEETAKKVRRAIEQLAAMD

By Kd is commonly meant the equilibrium constant for the complex coming apart. Lower therefore signals a tighter complex. The molecule AKER [Sgo1_(AKER) peptide] had a Kd of 11.6 µM.
